Source: patent US6803203

How the values were obtained:
[1] = system: T1, synthetic peptide (SEQ ID NO: 20)
T1 sequence: EPPLSEQAFADLWKK

[2] = system: T2, synthetic peptide (SEQ ID NO: 11)
T2 sequence: EPPLSQEAFADLWKK

casein kinase I was tested. Which “incorporation of phosphate into the peptide (200 or 500 µM)” value (shortened to “incorporation”) [1] did it give?
The value was “less than 5% of the incorporation into the standard peptides used to assay each kinase”.

And the “incorporation” value [2]?
The value was “less than 5% of the incorporation into the standard peptides used to assay each kinase”.

Which “incorporation” value [1] does the source give for casein kinase II here?
The value was “less than 5% of the incorporation into the standard peptides used to assay each kinase”.

What about the “incorporation” value [2] of the same substance?
Its value is “less than 5% of the incorporation into the standard peptides used to assay each kinase”.

With catalytic subunit of cyclic AMP kinase as the substance, how does the “incorporation” value [1] read?
The value was “less than 5% of the incorporation into the standard peptides used to assay each kinase”.

And the “incorporation” value [2]?
Its value is “less than 5% of the incorporation into the standard peptides used to assay each kinase”.
